US20230087785A1, “Leucine-Rich Repeat Kinase 2 Allosteric Modulators” (VIB VZW, priority 2020, published 2023)

Experiments:
[1] = biological target: T1, LRRK2 (wild-type) (Homo sapiens, UniProt Q5S007, M2397T/R50H); test: In vitro peptide phosphorylation (PhosphoSens kinase) assay; type: biochemical; details: 25 μM Nb; 10 μM AQT0615 peptide
T1 construct: Full-length human LRRK2 was expressed and purified based on previously developed protocols; SF tag (FLAG-tag + Twin-Strep-tag); made in house; host or cells: HEK 293T
T1 sequence (Q5S007 whole entry R50H/M2397T): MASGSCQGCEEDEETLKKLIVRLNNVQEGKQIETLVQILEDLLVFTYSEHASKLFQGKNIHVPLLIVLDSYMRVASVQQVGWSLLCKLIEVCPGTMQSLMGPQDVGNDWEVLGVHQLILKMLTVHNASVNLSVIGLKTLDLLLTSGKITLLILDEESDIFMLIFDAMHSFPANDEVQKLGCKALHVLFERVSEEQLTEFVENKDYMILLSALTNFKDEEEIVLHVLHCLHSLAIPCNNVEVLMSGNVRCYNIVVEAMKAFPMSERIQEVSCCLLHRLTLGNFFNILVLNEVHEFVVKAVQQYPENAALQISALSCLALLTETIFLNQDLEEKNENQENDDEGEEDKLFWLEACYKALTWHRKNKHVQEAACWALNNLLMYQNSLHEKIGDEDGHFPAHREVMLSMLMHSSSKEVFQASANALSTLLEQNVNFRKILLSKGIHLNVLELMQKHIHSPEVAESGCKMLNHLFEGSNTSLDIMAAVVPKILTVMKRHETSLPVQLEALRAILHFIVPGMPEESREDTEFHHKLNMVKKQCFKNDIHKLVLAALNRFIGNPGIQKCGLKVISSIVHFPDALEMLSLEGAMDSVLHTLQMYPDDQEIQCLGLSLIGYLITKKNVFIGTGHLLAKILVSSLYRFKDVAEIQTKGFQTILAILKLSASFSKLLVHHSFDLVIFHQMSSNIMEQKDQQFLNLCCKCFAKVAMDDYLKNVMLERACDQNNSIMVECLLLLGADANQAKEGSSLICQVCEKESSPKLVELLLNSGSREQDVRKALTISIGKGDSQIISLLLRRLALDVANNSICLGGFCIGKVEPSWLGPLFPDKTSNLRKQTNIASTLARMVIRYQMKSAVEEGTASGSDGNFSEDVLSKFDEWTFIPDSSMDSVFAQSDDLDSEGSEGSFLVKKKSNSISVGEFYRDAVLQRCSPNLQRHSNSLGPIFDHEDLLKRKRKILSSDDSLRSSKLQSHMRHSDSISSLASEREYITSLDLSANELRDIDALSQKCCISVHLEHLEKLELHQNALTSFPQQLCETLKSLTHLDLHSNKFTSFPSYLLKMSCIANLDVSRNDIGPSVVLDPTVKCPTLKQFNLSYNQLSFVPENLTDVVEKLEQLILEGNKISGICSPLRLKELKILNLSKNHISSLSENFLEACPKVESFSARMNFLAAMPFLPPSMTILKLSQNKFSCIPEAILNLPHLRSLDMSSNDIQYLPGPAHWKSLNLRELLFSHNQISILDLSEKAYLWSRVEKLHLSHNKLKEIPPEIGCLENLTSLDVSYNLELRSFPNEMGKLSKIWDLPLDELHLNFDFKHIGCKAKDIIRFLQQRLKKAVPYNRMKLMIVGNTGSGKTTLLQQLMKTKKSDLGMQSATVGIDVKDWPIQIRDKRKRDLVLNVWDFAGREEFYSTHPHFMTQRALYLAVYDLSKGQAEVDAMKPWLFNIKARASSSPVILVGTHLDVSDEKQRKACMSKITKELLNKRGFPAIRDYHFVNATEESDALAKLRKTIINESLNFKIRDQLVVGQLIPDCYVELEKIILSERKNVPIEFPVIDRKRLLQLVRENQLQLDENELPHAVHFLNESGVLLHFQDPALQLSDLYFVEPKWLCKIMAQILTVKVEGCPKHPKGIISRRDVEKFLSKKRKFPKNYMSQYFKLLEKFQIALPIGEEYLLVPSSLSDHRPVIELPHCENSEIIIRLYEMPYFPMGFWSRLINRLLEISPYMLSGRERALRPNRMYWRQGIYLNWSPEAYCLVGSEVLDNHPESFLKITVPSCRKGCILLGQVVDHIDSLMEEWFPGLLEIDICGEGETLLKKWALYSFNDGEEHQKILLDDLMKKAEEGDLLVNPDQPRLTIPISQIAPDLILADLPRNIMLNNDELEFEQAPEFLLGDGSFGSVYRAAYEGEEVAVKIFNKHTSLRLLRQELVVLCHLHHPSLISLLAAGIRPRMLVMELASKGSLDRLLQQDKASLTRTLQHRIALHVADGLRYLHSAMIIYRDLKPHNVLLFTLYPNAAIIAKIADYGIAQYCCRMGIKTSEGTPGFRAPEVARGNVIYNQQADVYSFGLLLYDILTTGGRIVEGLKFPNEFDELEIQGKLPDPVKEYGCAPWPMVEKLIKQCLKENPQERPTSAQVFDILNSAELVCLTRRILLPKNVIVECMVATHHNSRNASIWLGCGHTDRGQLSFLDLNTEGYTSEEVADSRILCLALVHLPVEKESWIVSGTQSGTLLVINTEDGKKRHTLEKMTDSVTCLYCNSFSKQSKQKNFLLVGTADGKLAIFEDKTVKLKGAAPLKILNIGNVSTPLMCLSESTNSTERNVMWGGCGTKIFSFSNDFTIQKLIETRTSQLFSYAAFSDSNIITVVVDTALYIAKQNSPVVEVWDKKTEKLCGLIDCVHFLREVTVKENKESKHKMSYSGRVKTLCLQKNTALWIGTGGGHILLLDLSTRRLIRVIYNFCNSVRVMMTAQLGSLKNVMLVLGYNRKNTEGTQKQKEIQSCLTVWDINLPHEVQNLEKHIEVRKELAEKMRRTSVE
Method: FIGS. 4A and 4B. Modulation of in vitro kinase activity by LRRK2-targeting Nbs. (FIG. 4A) Effect of selected LRRK2-targeting Nbs on LRRK2 kinase activity measured using the fluorescence-based PhosphoSens® Protein Kinase Assay, using the LRRK2-optimized AQT0615 peptide as substrate at a fixed concentration of 10 μM, and in the presence of 1 mM or 0.1 mM ATP, respectively. The influence of the different Nbs at a concentration of 25 μM on the relative kinase activity compared to the control where no Nb was added (“No Nb”) is plotted. […] (FIG. 4B) The influence of the different Nbs (25 μM) on the relative kinase activity compared to the “No-Nb” control is plotted, either in presence of 500 μM GDP (top) or 500 μM GTPγS (bottom). […] Each bar reflects the average (±SD) of three independent measurements.
Hereto, we used the fluorescence-based PhosphoSens® Protein Kinase Assay (AssayQuant Technologies Inc.), using the LRRK2-optimized AQT0615 peptide as substrate at a fixed concentration of 10 μM. The increase in fluorescence (Δexc:360 nm; Δemm:485 nm) due to LRRK2-catalyzed peptide phosphorylation was measured continuously in time under initial rate conditions at an ATP concentration of either 0.1 and 1 mM. Subsequently, the 10 Nbs were added at a final concentration of 25 μM and the effect on the initial rate was determined in triplicate (FIG. 4A). Two negative controls, where either no Nb or an irrelevant Nb was added, were also included. […] These experiments were performed in addition with LRRK2 either in the presence of a large excess (500 μM) of GDP or GTPγS (FIG. 4B), but no significant influence of the nucleotide on the inhibition profile was observed.
The Nb concentration was varied from 200 or 150 μM to 0.006 μM in a two-fold serial dilution, while keeping the peptide and ATP substrate concentrations constant at 10 μM and 1 mM, respectively (FIG. 11A-C).
The influence of the purified Nbs on LRRK2 kinase activity was determined using the PhosphoSens® Protein Kinase Assay (AssayQuant Technologies Inc.) using the optimized LRRK2 AQT0615 peptide as substrate and according to the manufacturers' instructions. The continuous kinase assay was performed in a total volume of 50 μL in a black half area 96 well plate. Each reaction mixture contained 10 μM AQT0615 peptide substrate/probe, either 0.1 mM or 1 mM ATP and 500 μM of either GDP, or GTPγS in a buffer consisting of 50 mM HEPES pH 7.5, 0.1% Brij-35, 50 mM NaCl and 10 mM MgCl2. The reaction was initiated by addition of a final concentration of 80 nM of LRRK2 either in absence or presence of 25 μM Nb. Prior to addition, LRRK2 and the Nbs were pre-incubated for 30 minutes on ice. The LRRK2-catalyzed phosphorylation of the peptide substrate/probe is followed continuously at 30° C. in a plate reader with excitation and emission wavelength of 360 nm and 485 nm respectively. Time traces were corrected by subtracting the “no LRRK2” control. The initial rates were determined from the slope of the linear portion of the curve.
To determine IC50 values the Nb concentration was varied from 150 μM to 0.006 μM using a two-fold serial dilution. In these assays a final LRRK2 concentration of 150 nM and an ATP concentration of 1 mM was used. The relative LRRK2 activity (compared to the “no nanobody” control) was plotted against the logarithmic Nb concentration and fitted on a three-parameter log(inhibitor) vs response equation in the GraphPad Prism software. All time traces were collected in triplicate.

[2] = biological target: T2, LRRK2 (Homo sapiens, UniProt Q5S007, M2397T/R50H); test: Competition ELISA titration; type: binding; details: Nb 450 nM to 0.2 nM; for shift of the Nb ELISA titration curve in presence of AdoCbl: 250 μM; for shift of the Nb ELISA titration curve in presence of MLi-2: large excess of MLi-2 (1 μM)
T2 construct: Full-length human LRRK2 was expressed and purified based on previously developed protocols; SF tag (FLAG-tag + Twin-Strep-tag); made in house; host or cells: HEK 293T
T2 sequence (Q5S007 whole entry R50H/M2397T): as above
Description: LRRK2 was coated in the wells of the ELISA plate and the ELISA signal for a dilution series of the respective Nbs (detected via their C-terminal EPEA-tag) is plotted in function of the Nb concentration. […] A “no antigen control”, where no LRRK2 was coated on the bottom of the well, is also included.
Most currently described LRRK2 inhibitors bind directly to the ATP-binding pocket of the kinase domain. […] Two of the in vitro kinase activity inhibiting Nbs described herein (Nb 1 and Nb6) bind LRRK2 predominantly via interactions with the COR-B domain, thus proposing a novel mechanism of action, and thereby excluding a mechanism of inhibition similar to these previously described LRRK2 kinase inhibitors that all directly interact with the kinase domain. […] To verify and confirm that Nb1, Nb6 and Nb23 bind LRRK2 in a different mode than any known small molecule kinase inhibitor, thus also different that the reported vitamin B12 forms, a competition ELISA titration experiment was performed (FIGS. 17A-17C). In this experimental setup, the ELISA experiment was performed using a fixed concentration of LRRK2 coated on the bottom of the ELISA plate, and using a dilution series of either of the three Nbs ranging from 450 nM to 0.2 nM. Detection of Nb binding in ELISA is performed using their C-terminal EPEA-tag, resulting in a dose-response titration curve reflecting an apparent affinity of the Nbs. […] Additionally, as a positive control, a repetition of the setup was performed in presence of an excess (9 μm) of the corresponding untagged Nb.
The ELISA experiment was performed similar as described above, using a fixed concentration of LRRK2 coated on the bottom of the ELISA plate, and using a 1:4 dilution series of Nb1, Nb6 or Nb23 ranging from 450 nM to 0.2 nM. Detection of Nb binding was performed using the C-terminal EPEA tag of the Nbs as described before, resulting in a dose response titration curve reflecting an apparent affinity of the Nbs. […] A “no antigen control”, where no LRRK2 was coated on the bottom of the well, was also included. The absorbance signal (A405 nm) was read out at different time points and the A405 nm at 0.5 h (Nb6 and Nb23) or 10 h (Nb1) was plotted in function of the Nb concentration.

| Molecule | effect on in vitro LRRK2 kinase activity [1] | shift of the Nb ELISA titration curve in presence of AdoCbl [2] | shift of the Nb ELISA titration curve in presence of MLi-2 [2] |
| --- | --- | --- | --- |
| Nb42: LRRK2-specific Nanobody, SEQ ID NO: 6 (protein, Nanobody CA14259) VHH: MAQVQLVESGGGLVQAGGSLRLSCAASGDVNYAVGWFRQAPRKEREFVAAINWRGDNTDYTDSVKGRFTISRDNAKNTVYLQMNSLKPEDTAVYYCAAKSAPYWYSDIAPDYWGQGTQVTVSS | no inhibitory effect could be observed in vitro | – | – |
| Nb23: LRRK2-specific Nanobody, SEQ ID NO: 3 (protein, Nanobody CA13612) VHH: MAQVQLVESGGGLVQAGGSLRLSCAASGRTFSRYTMGWFRQAPGKDREFVARITTSGAVTTYADSAKGRFTISRDNAKNTVYLQMNTLKPEDTAVYYCAAGQGQLSSQSRFVDYWGQGTQVTVSS | (to a lesser extent) Nb23 (CA13612), have a very clear significant inhibiting effect | no rightward shift is observed | no rightward shift is observed |
| Nb22: LRRK2-specific Nanobody, SEQ ID NO: 9 (protein, Nanobody CA13611) VHH: MAQVQLVESGGGLVQAGGSLRLSCAASGRTFSSYTMGWFRQAPGKEREFVAAIRWSGGSTYYADSVKGRFTISRDNAKNTVYLQMNSLKPEDTAVYYCAASDRGGFIATSGGWMDYWGKGTQVTVSS | activates the kinase activity of LRRK2 in vitro | – | – |
| Nb1: LRRK2-specific Nanobody, SEQ ID NO: 1 (protein, Nanobody CA12610) VHH: MAQVQLVESGGGLVQAGGSLRLSCVASGRIFSGNAMGWYRQAPGRQRELVAGITNGGYTNYRQFVKGRFTISRDNAKRTVYLQMNSLKPEDTAVYYCNALDREARQVDYWGQGTQVTVSS | very clear significant inhibiting effect | no rightward shift is observed | no rightward shift is observed |
| Nb6: LRRK2-specific Nanobody, SEQ ID NO: 2 (protein, Nanobody CA12618) VHH: MAQVQLVESGGGLVQAGGSLRLSCAASGSIFSPTAMGWYRQAPGKERELVAGITSGGYTNYRNFARGRFTISRDNAKKTVYLQMNSLNPEDTAVYYCNTLTISWSWGQGTQVTVSS | very clear significant inhibiting effect | no rightward shift is observed | no rightward shift is observed |
